In the oligonucleotide strings, read from the 5' end, every base follows the letter of its sugar. An asterisk marks phosphorothioate; unmarked linkages are phosphodiester. Other units and linkages are bracketed, terminal groups are in braces. A string of capitals states the bases alone. m = 2'-O-methyl; r = 2'-OH (RNA)
B1: GA238: PCSK9 gRNA; protospacer GCACGACCCCAGCCCTCGCC (SEQ ID NO: 231) (nucleic acid)
guide: GCACGACCCCAGCCCUCGCCGUUUUAGAGCUAGAAAUAGCAAGUUAAAAUAAGGCUAGUCCGUUAUCAACUUGAAAAAGUGGCACCGAGUCGGUGCUUUU
modifications: sugars from the 5' end m3 r94 m3, linkages s3 o93 s3 (s phosphorothioate, o phosphodiester), T or U not given here
B2: GA243: PCSK9 gRNA; protospacer GGCGAGGGCTGGGGTCGTGC (SEQ ID NO: 236) (nucleic acid)
guide: GGCGAGGGCUGGGGUCGUGCGUUUUAGAGCUAGAAAUAGCAAGUUAAAAUAAGGCUAGUCCGUUAUCAACUUGAAAAAGUGGCACCGAGUCGGUGCUUUU
modifications: sugars from the 5' end m3 r94 m3, linkages s3 o93 s3 (s phosphorothioate, o phosphodiester), T or U not given here
B3: GA242: PCSK9 gRNA; protospacer TCACCGCTGCCGGCAACTTC (SEQ ID NO: 235) (nucleic acid)
guide: UCACCGCUGCCGGCAACUUCGUUUUAGAGCUAGAAAUAGCAAGUUAAAAUAAGGCUAGUCCGUUAUCAACUUGAAAAAGUGGCACCGAGUCGGUGCUUUU
modifications: sugars from the 5' end m3 r94 m3, linkages s3 o93 s3 (s phosphorothioate, o phosphodiester), T or U not given here
B4: GA244: PCSK9 gRNA; protospacer TTCCGAATAAACTCCAGGCC (SEQ ID NO: 237) (nucleic acid)
guide: UUCCGAAUAAACUCCAGGCCGUUUUAGAGCUAGAAAUAGCAAGUUAAAAUAAGGCUAGUCCGUUAUCAACUUGAAAAAGUGGCACCGAGUCGGUGCUUUU
modifications: sugars from the 5' end m3 r94 m3, linkages s3 o93 s3 (s phosphorothioate, o phosphodiester), T or U not given here
B5: GA235: PCSK9 gRNA; protospacer CACCGCTGCCGGCAACTTCC (SEQ ID NO: 228) (nucleic acid)
guide: CACCGCUGCCGGCAACUUCCGUUUUAGAGCUAGAAAUAGCAAGUUAAAAUAAGGCUAGUCCGUUAUCAACUUGAAAAAGUGGCACCGAGUCGGUGCUUUU
modifications: sugars from the 5' end m3 r94 m3, linkages s3 o93 s3 (s phosphorothioate, o phosphodiester), T or U not given here
B6: GA398 (nucleic acid)
guide: mU*mC*mA*rGrCrUrCrCrArGrGrCrGrGrUrCrCrUrGrGmGrUrUrUrUrArGmAmGmCmUmAmGmAmAmAmUmAmGmCmAmArGrUrUmArAmArAmUrAmAmGmGmCmUmArGrUrCmCrGrUrUrAmUmCrArAmCmUmUmGmAmAmAmAmAmGmUmGmGmCmAmCmCmGmAmGmUmCmGmGmUmGmCmU*mU*mU*mUmUmUmU
B7: GA397 (nucleic acid)
guide: mU*mC*mA*rGrCrUrCrCrArGrGrCrGrGrUrCrCrUrGrGmGrUrUrUrUrArGmAmGmCmUmArGmAmAmAmUmAmGmCmAmArGrUrUmArAmArAmUrAmAmGmGmCmUmArGrUmCmCrGrUrU*rAmUmCrArAmCmUmUrGmAmAmAmAmAmGmUmGrGmCmAmCmCmGmAmGmUmCmGmGmUmGmCmU*mU*mU*mUmUmUmU
B8: GA396 (nucleic acid)
guide: mU*mC*mA*rGrCrUrCrCrArGrGrCrGrGrUrCrCrUrGrGmGrUrUrUrUrArGmAmGmCmUmArGmAmAmAmUmAmGmCmAmArGrUrU*mArAmArAmUrAmAmGmGmCmUmArGrUmCmCrGrUrUrAmUmCrArAmCmUmUrGmAmAmAmAmAmGmUmGrGmCmAmCmCmGmAmGmUmCmGmGmUmGmCmU*mU*mU*mUmUmUmU
B9: GA395 (nucleic acid)
guide: mU*mC*mA*rGrCrUrCrCrArGrGrCrGrGrUrCrCrUrGrGmGrUrUrUrUrArGmAmGmCmUmArGmAmAmAmUmAmGmCmAmArGrUrUmArAmArAmUrAmAmGmGmCmUmArGrUmCmCrGrUrUrAmUmCrArAmCmUmUrGmAmAmAmAmAmGmUmGrGmCmAmCmCmGmAmGmUmCmGmGmUmGmCmU*mU*mU*mUmUmUmU
B10: GA405: gRNA targeting PCSK9 with modifications to the tracr, for SpCas9 (nucleic acid)
guide: mU*mC*mA*rGrCrUrCrCrArGrGrCrGrGrUrCrCrUrGrGmGrUrUrUrUrArGmAmGmCmUmAmGmAmAmAmUmAmGmCmAmArGrUrUmArAmArAmUrAmAmGmGmCmUmArGrUrCmCrGrUrUrAmUmCrArAmCmUmUmGmAmAmAmAmAmGmUmGmGmCmAmCmCmGmAmGmUmCmGmGmUmGmCmU*mU*mU*mUmUrUmU
B11: GA399 (nucleic acid)
guide: mU*mC*mA*rGrCrUrCrCrArGrGrCrGrGrUrCrCrUrGrGmGrUrUrUrUrArGmAmGmCmUmAmGmAmAmAmUmAmGmCmAmArGrUrUmArAmArAmUrAmAmGmGmCmUmArGmUrCmCrGrUrUmAmUmCrArAmCmUmUmGmAmAmAmAmAmGmUmGmGmCmAmCmCmGmAmGmUmCmGmGmUmGmCmU*mU*mU*mUmUmUmU

Test system: PCSK9 gene
Test: PCSK9 gRNA/SpCas9 editing in primary cynomolgus hepatocytes (Tables 2, 22)
Assay type: cell-based, cynomolgus monkey
Settings: 100 ng/RNA/mL; SpCas9 mRNA MS002 1:1 by weight
Protocol: In set of experiments, PCSK9 gRNAs were co-transfected with an equivalent amount (1:1 ratio by weight) of in vitro transcribed commercially available SpCas9 mRNA MS002 purchased from TriLink Biotechnologies into primary human hepatocytes at 2500, 500, or 100 ng/RNA/mL and processed as described in detailed methods. Extracted genomic DNA was analyzed for gene editing at the target site with next-generation sequencing of PCR amplicons generated around the target sites. Samples were prepared using the Nextera XT DNA library preparation kit (Illumina) according to the manufacturer's protocol. Briefly, two rounds of PCR were performed first to amplify the region of interest and second to add DNA sequences required for next generation sequencing and sample identification to the initial product. The final amplicon was sequenced on the Illumina MiSeq instrument according to the manufacturer's protocol. A wide range of editing activities (Table 2) were observed. In a second set of experiments, ANGPTL3 gRNAs were co-transfected with an equivalent amount of in vitro transcribed SpCas9 mRNA (1:1 ratio by weight) into primary human hepatocytes and processed and analyzed similarly (Table 3).
[…] Genomic DNA was processed, sequenced, and analyzed as described in the detailed methods section. GA266 was transfected independently twice to serve as two positive controls.
Plating, culturing, and transfection of primary hepatocytes. Primary human liver hepatocytes (PHH) and primary cynomolgus liver hepatocytes (PCH) from BioIVT were cultured per the manufacturer's protocol. Briefly, primary human hepatocytes and primary cyno hepatocytes were obtained as frozen aliquots from BioIVT. Four lots of primary human hepatocytes, each derived from a de-identified individual donor, were used for the experiments: STL (main donor) was used for all experiments, including screening experiments and off-target experiments; HLY, JLP, and TLY were used for off-target experiments. The HFG lot of primary cyno hepatocytes were used for experiments. Following the manufacturer's instructions, cells were thawed and rinsed prior to plating in 24-well plates that had been coated with bovine collagen overnight, with a density of approximate 350,000 cells/well in INVITROGRO hepatocyte medium supplemented with TORPEDO antibiotic mix (BioIVT). The cells were thawed and resuspended in hepatocyte thawing medium followed by centrifugation at 100 g for 10 min at 4° C. The supernatant was discarded, and the pelleted cells resuspended in hepatocyte plating medium. Each vial contains approximately 5 million cells that were used for plating one 24-well plate. Plated cells were allowed to settle and adhere for 4-6 h in a tissue culture incubator at 37° C. under 5% CO2 atmosphere. After incubation, cells were checked for monolayer formation. The incubating media were then replaced with fresh hepatocyte maintenance media (complete INVITROGRO medium obtained from BioIVT, the cell line provider). The cells thus became ready for transfection. Each of the gRNAs were co-transfected with an equivalent amount of in vitro transcribed ABE8.8 mRNA (1:1 ratio by molecular weight) into primary human hepatocytes via MessengerMax reagent (Lipofectamine), using various dilutions to assess for editing activity at different concentrations of test article. MessengerMAX from Thermo Fisher is used for transfection. Solution A: desired amount of guide RNA is mixed with 1:1 wt ratio of mRNA in OptiMEM. Solution B: MessengerMAX in OptiMEM. After mixing solutions A and B, the mixture was incubated at room temperature for 20 min. 60 μL of the incubated solution was added dropwise to each cell wells. For protospacer sequences that were a perfect match to the corresponding cynomolgous monkey PCSK9 or ANGPTL3 gene sequence, each gRNA was also co-transfected with an equivalent amount of ABE8.8 mRNA (1:1 ratio by molecular weight) into primary cynomolgous hepatocytes, and followed the same transfection protocol. […]

Molecule	Cyno Primary Hepatocyte Editing % 100
B1	0.94%
B2	0.51%
B3	1.79%
B4	1.63%
B5	2.51%

Same assay, conditions: 500 ng/RNA/mL; SpCas9 mRNA MS002 1:1 by weight

Molecule	Cyno Primary Hepatocyte Editing % 500
B1	4.01%
B2	1.84%
B3	7.13%
B4	7.89%
B5	17.51%

Same assay, conditions: 2500 ng/RNA/mL; SpCas9 mRNA MS002 1:1 by weight

Molecule	Cyno Primary Hepatocyte Editing % 2500
B1	17.92%
B2	10.18%
B3	31.71%
B4	28.16%
B5	50.03%

Same assay, conditions: SpCas9 mRNA MS002, 625 ng/test article/mL, rep1

Molecule	Cynomolgus Primary Hepatocytes-% Editing
B6	39.09%
B7	40.72%
B8	44.44%
B9	33.87%
B10	26.2%
B11	37.75%

Same assay, conditions: SpCas9 mRNA MS002, 625 ng/test article/mL, rep2

Molecule	Cynomolgus Primary Hepatocytes-% Editing
B6	44%
B7	46.28%
B8	41.53%
B9	34.57%
B10	26.36%
B11	41.8%

Same assay, conditions: SpCas9 mRNA MS002, 1250 ng/test article/mL, rep1

Molecule	Cynomolgus Primary Hepatocytes-% Editing
B6	56.45%
B7	56.47%
B8	56.02%
B9	41.48%
B10	35.84%
B11	55.55%

Same assay, conditions: SpCas9 mRNA MS002, 1250 ng/test article/mL, rep2

Molecule	Cynomolgus Primary Hepatocytes-% Editing
B6	55.21%
B7	58.68%
B8	52.02%
B9	44.35%
B10	35.88%
B11	53.02%

Same assay, conditions: SpCas9 mRNA MS002, 2500 ng/test article/mL, rep1

Molecule	Cynomolgus Primary Hepatocytes-% Editing
B6	59.85%
B7	56.65%
B8	53.98%
B9	43.91%
B10	41.85%
B11	58.97%

Same assay, conditions: SpCas9 mRNA MS002, 2500 ng/test article/mL, rep2

Molecule	Cynomolgus Primary Hepatocytes-% Editing
B6	63.97%
B7	58.59%
B8	56.84%
B9	49.53%
B10	47.33%
B11	62.75%

Same assay, conditions: SpCas9 mRNA MS002; 2500, 1250, 625 ng/test article/mL

Molecule	editing efficiency compared to positive control GA266
B10	slightly lower editing efficiency

From patent publication US20250152746A1, “BASE EDITING OF ANGPTL3 AND METHODS OF USING SAME FOR TREATMENT OF DISEASE” (Verve Therapeutics, Inc., priority 2020, published 2025)
